Changes are numbered by the printed parent chain.
B1: IL6R-P587/IL6R-L (antibody, human IgG1, kappa)
heavy: QVQLQESGPGLVKPSETLSLTCAVSGHSISHDHAWSWVRQPPGEGLEWIGFISYSGITNYNPSLQGRVTISRDNSKNTLYLQMNSLRAEDTAVYYCARSLARTTAMDYWGEGTLVTVSSASTKGPSVFPLAPSSKSTSGGTAALGCLVKDYFPEPVTVSWNSGALTSGVHTFPAVLQSSGLYSLSSVVTVPSSSLGTQTYICNVNHKPSNTKVDKKVEPKSCDKTHTCPPCPAPDLLGGDSVFLFPPKPKDTLMISRTPEVTCVVIDVAEEDGEVKFNWYVDGVEVHNAKTKPREEQYNSTYRVVSVLTVLHQDWLNGKEYKCKVSNKALPAPIEKTISKAKGQPREPQVYTLPPSRDELTKNQVSLTCLVKGFYPSDIAVEWESNGQPENNYKTTPPVLDSDGSFFLYSKLTVDKSRWQQGNVFSCSVMHEALHNHYTQKSLSLSP
light: not shown
B2: IL6R-BP490/IL6R-L (antibody, human IgG1, kappa, name in EU numbering)
heavy: B1 heavy with D235E, G239D, A332R, K441E
light: not shown
notes: human IgG1
B3: IL6R-BP561/IL6R-L (antibody, human IgG1, kappa, name in EU numbering)
heavy: B1 heavy with G239D, I266V, A269S, E270D, E274D, Y298D, A332R, K441E
light: not shown
notes: human IgG1
B4: IL6R-BP506/IL6R-L (antibody, human IgG1, kappa, name in EU numbering)
heavy: B1 heavy with G239D, E274P, Y298D, A332R, K441E
light: not shown
notes: human IgG1
B5: IL6R-BP535/IL6R-L (antibody, human IgG1, kappa, name in EU numbering)
heavy: B1 heavy with G239D, A269G, Y298D, A329G, A332R, P398M, K441E
light: not shown
notes: human IgG1
B6: IL6R-BP507/IL6R-L (antibody, human IgG1, kappa, name in EU numbering)
heavy: B1 heavy with G239D, E274P, A332R, K441E
light: not shown
notes: human IgG1
B7: IL6R-BP532/IL6R-L (antibody, human IgG1, kappa, name in EU numbering)
heavy: B1 heavy with G239D, A269S, Y298D, A332R, P398M, K441E
light: not shown
notes: human IgG1
B8: IL6R-BP552/IL6R-L (antibody, human IgG1, kappa, name in EU numbering)
heavy: B1 heavy with G239D, E274D, Y298D, A332R, K441E
light: not shown
notes: human IgG1
B9: IL6R-BP553/IL6R-L (antibody, human IgG1, kappa, name in EU numbering)
heavy: B1 heavy with G239D, E274D, A332R, K441E
light: not shown
notes: human IgG1
B10: IL6R-BP537/IL6R-L (antibody, human IgG1)
heavy: B1 heavy with D235E, G239D, A269G, A332R, K441E
light: not shown
notes: human IgG1
B11: IL6R-BP531/IL6R-L (antibody, human IgG1, kappa, name in EU numbering)
heavy: B1 heavy with G239D, A269G, Y298D, A332R, P398M, K441E
light: not shown
notes: human IgG1
B12: IL6R-BP534/IL6R-L (antibody, human IgG1, kappa, name in EU numbering)
heavy: B1 heavy with G239D, A269S, Y298D, A332R, P398L, K441E
light: not shown
notes: human IgG1
B13: IL6R-BP555/IL6R-L (antibody, human IgG1, kappa, name in EU numbering)
heavy: B1 heavy with D235E, G239D, E274D, Y298D, A332R, K441E
light: not shown
notes: human IgG1
B14: IL6R-P555/IL6R-L (antibody, human IgG1, kappa)
heavy: B1 heavy with D235E, G239D, I266V, A269S, E270D
light: not shown

molecular target: T1, human FcγRIIa H type extracellular domain with C-terminal His tag (human, UniProt P12318 34-217); assay: SPR, KD of IL6R-G1d/IL6R-L divided by KD of variant
T1 construct: extracellular domain; also called FcgRIIaH
T1 sequence (looked up): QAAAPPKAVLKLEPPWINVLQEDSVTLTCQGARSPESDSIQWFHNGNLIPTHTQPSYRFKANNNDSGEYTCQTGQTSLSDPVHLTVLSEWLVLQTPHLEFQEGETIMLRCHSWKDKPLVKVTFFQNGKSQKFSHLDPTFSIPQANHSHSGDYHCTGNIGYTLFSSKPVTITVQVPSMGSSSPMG

Binder | Relative FcgRIIaH-binding Activity
B1 | 0.044

molecular target: T2, human FcγRIIIa V type extracellular domain with C-terminal His tag (human, UniProt P08637 17-208); assay: as above
T2 construct: extracellular domain; also called FcgRIIIaV
T2 sequence (P08637 17-208 F176V): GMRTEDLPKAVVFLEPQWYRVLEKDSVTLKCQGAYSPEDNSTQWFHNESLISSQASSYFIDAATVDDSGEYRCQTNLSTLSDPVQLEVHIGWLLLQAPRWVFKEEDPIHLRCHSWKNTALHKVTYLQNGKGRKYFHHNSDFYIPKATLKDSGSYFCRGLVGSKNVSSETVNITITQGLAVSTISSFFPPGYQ

Binder | Relative FcgRIIIaV-binding Activity
B1 | 0.012

molecular target: T3, human FcγRIIb extracellular domain with C-terminal His tag (human, UniProt P31994 43-217); assay: as above
T3 construct: extracellular domain; also called FcgRIIb
T3 sequence (looked up): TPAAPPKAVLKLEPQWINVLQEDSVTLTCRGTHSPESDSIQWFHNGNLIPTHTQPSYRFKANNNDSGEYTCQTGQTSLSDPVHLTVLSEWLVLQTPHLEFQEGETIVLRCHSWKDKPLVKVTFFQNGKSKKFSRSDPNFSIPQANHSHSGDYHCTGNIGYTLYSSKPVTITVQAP

Binder | Relative FcgRIIb-binding Activity
B1 | 75

molecular target: T4, human FcγRIa extracellular domain with C-terminal His tag (human, UniProt P12314 16-292); assay: as above
T4 construct: Whole entry named; also called FcgRIa
T4 sequence (P12314 16-292): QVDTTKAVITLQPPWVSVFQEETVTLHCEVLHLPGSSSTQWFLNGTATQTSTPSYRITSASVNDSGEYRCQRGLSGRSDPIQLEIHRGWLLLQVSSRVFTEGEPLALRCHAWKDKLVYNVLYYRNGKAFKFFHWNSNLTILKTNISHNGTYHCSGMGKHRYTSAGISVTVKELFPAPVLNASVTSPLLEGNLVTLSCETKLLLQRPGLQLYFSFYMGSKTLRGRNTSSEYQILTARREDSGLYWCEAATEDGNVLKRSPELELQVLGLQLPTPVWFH

Binder | Relative FcgRIa-binding Activity
B1 | 0.451

molecular target: T5, human FcγRIIa R type extracellular domain with C-terminal His tag (human, UniProt P12318 34-217); assay: as above
T5 construct: extracellular domain; also called FcgRIIaR
T5 sequence (looked up): T1 sequence (looked up) with H134R

Binder | Relative FcgRIIaR-binding Activity
B1 | 0.92

molecular target: T6, FcγRIIa R type extracellular domain with C-terminal His tag (human, UniProt P12318 34-217); assay: SPR, antibody captured, FcgR analyte
T6 construct: extracellular domain; also called FcgRIIaR; not shown: His tag at the C terminus
T6 sequence (looked up): T1 sequence (looked up) with H134R

Binder | Kd
B2 | 110 nM
B3 | 510 nM
B4 | 120 nM
B5 | 92 nM
B6 | 100 nM
B7 | 94 nM
B8 | 97 nM
B9 | 86 nM
B10 | 270 nM
B11 | 120 nM
B12 | 91 nM
B13 | 160 nM

molecular target: T7, FcγRIIb extracellular domain with C-terminal His tag (human, UniProt P31994 43-217); assay: SPR, antibody captured, FcgR analyte
T7 construct: extracellular domain; also called FcgRIIb; not shown: His tag at the C terminus
T7 sequence (looked up): T3 sequence (looked up)

Binder | Kd
B2 | 2.4 nM
B3 | 18 nM
B4 | 3.4 nM
B5 | 4 nM
B6 | 2.9 nM
B7 | 3.2 nM
B8 | 2.6 nM
B9 | 3.1 nM
B10 | 6.9 nM
B11 | 3.8 nM
B12 | 3 nM
B13 | 4.1 nM

molecular target: T8, FcγRIa extracellular domain with C-terminal His tag (human, UniProt P12314 16-292); assay: SPR, antibody captured, FcgR analyte
T8 construct: also called FcgRIa; CD64; not shown: His tag at the C terminus
T8 sequence (P12314 16-292): as above

Binder | Kd
B2 | 4.5 nM
B3 | 9.4 nM
B4 | 3.1 nM
B5 | 11 nM
B6 | 2.6 nM
B7 | 12 nM
B8 | 3.2 nM
B9 | 3.4 nM
B10 | 29 nM
B11 | 9.4 nM
B12 | 9.3 nM
B13 | 9.4 nM

molecular target: T9, FcgRIIb (human, UniProt P31994 43-217); assay: SPR, amount bound per captured antibody
T9 construct: extracellular domain; also called FcγRIIb
T9 sequence (looked up): T3 sequence (looked up)

Binder | Relative FcgRIIb-binding Activity
B14 | 305 IL6R-G1d/IL6R-L=100

molecular target: T10, FcgRIIaR (human, UniProt P12318 34-217); assay: SPR, amount bound per captured antibody
T10 construct: extracellular domain; also called FcγRIIa R type; FcγRIIa (R type)
T10 sequence (looked up): T1 sequence (looked up) with H134R

Binder | Relative FcgRIIaR-binding Activity
B14 | 83.8 IL6R-G1d/IL6R-L=100
